Molecular target: enterovirus 71 (EV71) virions (enterovirus 71)
Assay: cell-based or functional assay

Binder	Inhibitory concentration 50 (IC50), Vero ATCC [µg/mL]	Inhibitory concentration 50 (IC50), Vero NIBSC [µg/mL]	PRNT50 of original hybridoma [µl/ml]	end point PRNT50, Vero ATCC [ng/mL]	end point PRNT50, Vero NIBSC [ng/mL]
monoclonal antibody E18 produced by the hybridoma cell line EV18/4 (antibody, V domains shown) VH: QIQLVQSGPELKKPGETVKISCKASGYTFTRYGMSWVKQAPGKGLKWMGWINTYSGVPTYADDFKGRFAFSLETSASTAYLQINNLKNEDTATYFCARRGYSNYYPMDFWGQGTSVTVSS VL: DIKMTQSPSSMYASLGERVTITCKASQDIKSYLSWYQQKPWKSPKTLIYYAKNLADGVPSRFSGSGFGQDYSLTISSLESDDTATYYCLQHGESPYTFGSGTKLEIKR	0.272	0.181	0.625	625	312
monoclonal antibody E20 produced by the hybridoma cell line EV20/5 (antibody, V domains shown) VH: EVQLVESGGGLVKPGGSLKLSCAASGFTFNIYAMSWVRQTPEKRLEWVATISDGGSYTYYPDNVKGRFTISRDNAKNNLYLQMSHLKSEDTAMYYCVRDRGNYYSRAFPYAYWGQGTLVTVSA VL: SIVMTQTPKFLPVSAGDRVTMTCKASQSVGNNVAWYQQKSGQSPKLLIYYASNRYTGVPDRFTGSGSGTDFTFTISSVQVEDLAVYFCQQHYSSPPTFGAGTKLELK	–	9.95	5	–	10000
